Results from the Immune Epitope Database (IEDB).

Biological target: HLA-A*02:01
Assay: IEDB peptide-MHC binding, purified MHC/competitive/radioactivity; ≥ and ≤ were set here for values at or beyond the usual limits of such assays
Conditions: source organism: Human alphaherpesvirus 1

| Sequence | IC50 |
| --- | --- |
| AIVVVIILV | 6.91 µM |
| ALAAIENYV | 0.0027 µM |
| ALAFDSTRV | 0.649 µM |
| ALAPVFAFL | 0.0022 µM |
| ALATALTEA | 0.01 µM |
| ALAVFQPAV | 0.0016 µM |
| ALDHYDCLI | 0.18 µM |
| ALGERLDAV | 0.025 µM |
| ALGLSAFGV | 0.0096 µM |
| ALGMRGLVL | 0.491 µM |
| ALHQCFTEL | 0.831 µM |
| ALHTALATV | 0.016 µM |
| ALLDRDCRV | 0.0056 µM |
| ALLEACLRV | 0.0066 µM |
| ALLGAWPAV | 0.0025 µM |
| ALLPAPITL | 0.132 µM |
| ALLQQTWTL | 0.00039 µM |
| ALMAGYFKI | 0.049 µM |
| ALMGAVTSL | 0.0042 µM |
| ALMLRLLRI | 0.046 µM |
| ALMRGRPGL | 1.68 µM |
| ALPDTVAPV | 0.0091 µM |
| ALQTDNYTL | 0.029 µM |

| Sequence | IC50 |
| --- | --- |
| ALSALLTKL | 0.313 µM |
| ALSPALTAL | 0.194 µM |
| ALSPVLPPM | 0.03 µM |
| ALVACVAAL | 0.055 µM |
| ALVAWLTHA | 0.015 µM |
| ALVELNSGV | 0.0093 µM |
| ALYACVLAA | 0.0056 µM |
| ALYYSVENV | 0.038 µM |
| AMDLVLAAV | 0.0044 µM |
| AMDSDLGSL | 0.978 µM |
| AMHARMAAV | 0.019 µM |
| AMNRRIMNV | 1.19 µM |
| AVFGVVAIV | 0.25 µM |
| AVGELLAPV | 0.084 µM |
| AVHDPERPL | 3.94 µM |
| AVLADFSLV | 0.134 µM |
| AVLAFVALI | 0.107 µM |
| AVVPIIPFL | 1.03 µM |
| AVWISLAQV | 0.259 µM |
| CLAEYCTSL | 0.186 µM |
| CLLCNLLLV | 0.06 µM |
| CLSDLLGFL | 0.088 µM |
| CMFGVVSPA | 0.0095 µM |

| Sequence | IC50 |
| --- | --- |
| DLAEWVPRV | 0.0043 µM |
| DLWNVMYTL | 0.333 µM |
| DMTPAELEV | 0.669 µM |
| ELACLLMYL | 0.054 µM |
| ELFGEAFEV | 0.09 µM |
| EMADTFLDT | 1.77 µM |
| EMIRYMALV | 0.179 µM |
| FAASANFFL | 0.142 µM |
| FADSDGHYV | 0.142 µM |
| FADTVVACV | 0.059 µM |
| FAFRYVNRL | 0.122 µM |
| FALDRPCLV | 0.076 µM |
| FIAPLGFSL | 0.0065 µM |
| FILDALAQA | 0.0026 µM |
| FILDNPGFV | 0.011 µM |
| FIPQYLSAV | 0.015 µM |
| FITTMAPRV | 0.032 µM |
| FIYLALLEA | 0.011 µM |
| FLAASALGV | 0.0074 µM |
| FLADAVVRL | 0.052 µM |
| FLALVSNRV | 0.0074 µM |
| FLAPELVRA | 0.012 µM |
| FLARFWTRA | 0.048 µM |

| Sequence | IC50 |
| --- | --- |
| FLASLVVLA | 0.0017 µM |
| FLCAKCLGA | 0.137 µM |
| FLCTADAAV | 0.003 µM |
| FLEDLSYPA | 0.00064 µM |
| FLGAGALAV | 0.08 µM |
| FLGDDPSPA | 0.013 µM |
| FLGGHVAVA | 0.065 µM |
| FLGSCICFI | 0.012 µM |
| FLHDVENFL | 0.012 µM |
| FLHLYLFLT | 0.564 µM |
| FLLAKLTDI | 0.01 µM |
| FLLKQFHAA | 0.053 µM |
| FLMAPDLYV | 0.0064 µM |
| FLNQANCKI | 0.458 µM |
| FLQPTADLL | 0.026 µM |
| FLRSCHWVL | 0.582 µM |
| FLRYHCPGL | 0.188 µM |
| FLSAKTLTV | 0.011 µM |
| FLSDSEAEA | 0.0026 µM |
| FLSRPINTI | 0.528 µM |
| FLSTLPSDV | 0.076 µM |
| FLTCTDRSV | 0.083 µM |
| FLTPLSVTL | 0.0047 µM |

| Sequence | IC50 |
| --- | --- |
| FLTREILWA | 0.0042 µM |
| FLTTPVPSL | 0.111 µM |
| FLVPGTHVA | 0.045 µM |
| FLWSFLVLK | 1.42 µM |
| FLYLAFVAL | 1.97 µM |
| FMAAKAAHL | 0.276 µM |
| FMHIWLQAA | 0.081 µM |
| FMPDFSRVI | 0.101 µM |
| FMQPDNANL | 0.047 µM |
| FMSVVNTNI | 0.06 µM |
| FMTALVLSL | 0.0008 µM |
| FMVSSIDEL | 0.0011 µM |
| FTATSIARV | 0.074 µM |
| FTINIAAYL | 0.123 µM |
| FTLPVLTFV | 0.0011 µM |
| FTQKSLFPI | 0.084 µM |
| FVADVQHAA | 7.75 µM |
| FVALIPPTL | 0.704 µM |
| FVAPYFESV | 0.0087 µM |
| FVFVILARL | 0.72 µM |
| FVGVIILGV | 0.0059 µM |
| FVPYVLALV | 0.0009 µM |
| FVVWALLGL | 0.196 µM |

| Sequence | IC50 |
| --- | --- |
| FVVYNLTGV | 0.0022 µM |
| FVWQERAAV | 0.261 µM |
| FVYTPSPYV | 0.129 µM |
| FWMSPVFNL | 0.096 µM |
| GIAWYVTSI | 0.143 µM |
| GILTVVWTA | 0.0021 µM |
| GLARLDALV | 0.013 µM |
| GLAVAMEV | 0.025 µM |
| GLAVDLYAL | 0.012 µM |
| GLAVVLWSL | 0.017 µM |
| GLDEQQLDV | 1.18 µM |
| GLFFSVYAL | 0.023 µM |
| GLFQEAYPL | 0.0054 µM |
| GLFQPFMFV | 0.037 µM |
| GLFVSLPVV | 0.0047 µM |
| GLGRHLWRL | 0.133 µM |
| GLISFYNFL | 0.0015 µM |
| GLLFVLLVA | 1.06 µM |
| GLLGSLVGA | 0.0037 µM |
